For this experiment, the target named is T1, NM23-wt containing the Strep-tag II (UniProt P15531 1-152, limits assumed).
T1 construct: Strep-tag II version used in the nanoparticle assay; also called wild type hexamers; not shown: Strep-tag II
In words: gold nanoparticle color change assay. From the text: A nanoparticle assay was used to characterize the binding of NM23 dimers versus hexamers. A MUC1*ecd peptide ([…]) (SEQ ID NO:44) was immobilized on NTA-SAM-coated gold colloids. NM23-wt, NM23S120G-dimer and NM23S120G-hexamer were expressed and purified with the Strep-tag II (FIG. 22c). The addition of NM23S120G-dimer induced a pink to blue solution color change, indicating a specific binding, which was then inhibited by the addition of an anti-MUC1* Fab.

T1 sequence (P15531 whole entry): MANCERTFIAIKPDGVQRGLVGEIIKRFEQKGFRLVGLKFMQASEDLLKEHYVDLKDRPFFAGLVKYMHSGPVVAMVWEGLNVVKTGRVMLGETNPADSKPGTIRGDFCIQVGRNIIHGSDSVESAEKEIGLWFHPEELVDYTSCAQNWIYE

B1: MUC1*ecd peptide (QFNQYKTEAASRYNLTISDVSVSDVPFPFSAQSGAHHHHHH) immobilized on NTA-SAM-coated gold colloids (peptide)
peptide: QFNQYKTEAASRYNLTISDVSVSDVPFPFSAQSGAHHHHHH
notes: also called MUC1*ecd peptide (PSMGFR-His tagged)
With B1, the binding result is given as “no binding (tested: 64 nM)”.

The values above are taken from patent US20140178963A1 (MINERVA BIOTECHNOLOGIES, published 2014).
